Key:
[1] = target: E1E2 Y443A (H77 alanine-scanning library clone) (hepatitis C virus genotype 1a, strain H77); test: flow cytometry on cells
[2] = target: E1E2 S432A (H77 alanine-scanning library clone) (hepatitis C virus genotype 1a, strain H77); test: flow cytometry on cells

B1: monoclonal antibody AR3C (antibody, V domains shown)
VH: VQLLEQSGAEVKKPGSSVKVSCETSGGTFDNYALNWVRQAPGQGLEWIGGVVPLFGTTRNAQKFQGRVTISDDKSTGTGHMELRSLRSEDTAVYYCVRSVTPRYCGGGFCYGEFDYWGQGTLVTVSS
VL: EIELTQSPATLSVSPGERATLSCRASQSVSSNLAWYQQKPGQAPRLLIYGASTRATGIPARFSGSGSGTEFTLTVSRLEPEDSAVYFCQQYYRSPLTFGGGTKVEIK
In the case of B1, the % reactivity (of wild type) [1] is reported as 15% and the % reactivity (of wild type) [2] is reported as 55%.

Source: paper PMC5749897
